Source: the supplement of paper PMC10724198
± gives the standard deviation of the averaged measurements.

What was measured:
Saccharomyces cerevisiae [1] = test: protein stability index of tFT-peptide fusion (C-terminal peptide) (PSI (0-1 scale)); higher = more stable (slower turnover); conditions: genetic background: wild type; temperature: 30 C
Saccharomyces cerevisiae [2] = test: as above
Method: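 MPS profiling in S. cerevisiae of the tFT-X12 degron library: putative degron peptides plus stable controls, 12 aa, fused to the C-terminus of a sfGFP-mCherry timer. Cells are FACS-sorted into 8 mCherry/sfGFP bins and deep-sequenced. PSI runs from 0 (unstable) to 1 (stable). Backgrounds are wild type, das1Δ and doa10Δ at 30 °C, and wild type, das1Δ, cdc34-1 and cdc53-1 at 37 °C; 2-3 technical replicates each.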

[3] = genetic background: cdc34-1, temperature: 37 C
[4] = genetic background: cdc53-1, temperature: 37 C
[5] = genetic background: das1 deletion, temperature: 30 C
[6] = genetic background: das1 deletion, temperature: 37 C
[7] = genetic background: doa10 deletion, temperature: 30 C
[8] = genetic background: wild type, temperature: 30 C
[9] = genetic background: wild type, temperature: 37 C
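Further: PSI is a weighted mean of sequencing reads over stability bins, variants kept only with over 10 reads, mCherry proximal and sfGFP distal, peptide attached via GGGS linker.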

Row | Sequence | protein stability index (Saccharomyces cerevisiae [1]) | protein stability index (Saccharomyces cerevisiae [2]; [3]) | protein stability index (Saccharomyces cerevisiae [2]; [4]) | protein stability index (Saccharomyces cerevisiae [2]; [5]) | protein stability index (Saccharomyces cerevisiae [2]; [6]) | protein stability index (Saccharomyces cerevisiae [2]; [7]) | protein stability index (Saccharomyces cerevisiae [2]; [8]) | protein stability index (Saccharomyces cerevisiae [2]; [9])
1 | IYEAFLVFCLCG | 0.365 ± 0.021 | 0.426 ± 0.016 | 0.454 ± 0.011 | 0.326 ± 0.028 | 0.543 ± 0.014 | 0.284 ± 0.016 | 0.287 ± 0.015 | 0.4385 ± 0.0019
2 | LPPSPPAPLSRL | 0.804 ± 0.066 | 0.906 ± 0.024 | 0.8918 ± 0.0015 | 0.81 ± 0.012 | 0.8616 ± 0.0061 | 0.804 ± 0.022 | 0.801 ± 0.019 | 0.8571 ± 0.005
3 | VWVAWLGGAILA | 0.267 ± 0.021 | 0.149 ± 0.021 | 0.188 ± 0.012 | 0.2 ± 0.029 | 0.29 ± 0.0052 | 0.174 ± 0.024 | 0.194 ± 0.022 | 0.272 ± 0.0045
4 | VSLSWFSCCFVG | 0.386 ± 0.0073 | 0.497 ± 0.066 | 0.556 ± 0.03 | 0.439 ± 0.026 | 0.489 ± 0.023 | 0.376 ± 0.026 | 0.377 ± 0.019 | 0.458 ± 0.01
5 | VDGVSFFVVLLC | 0.311 ± 0.036 | 0.406 ± 0.087 | 0.503 ± 0.0085 | 0.343 ± 0.029 | 0.537 ± 0.0077 | 0.189 ± 0.0091 | 0.198 ± 0.026 | 0.427 ± 0.0064
6 | VIQNKKKNKITS | 0.372 ± 0.027 | 0.599 ± 0.048 | 0.6883 ± 0.0049 | 0.642 ± 0.013 | 0.736 ± 0.0094 | 0.177 ± 0.021 | 0.168 ± 0.015 | 0.284 ± 0.018
7 | HTYSFRLLFIFL | 0.388 ± 0.05 | 0.378 ± 0.031 | 0.456 ± 0.016 | 0.328 ± 0.035 | 0.4762 ± 0.0044 | 0.381 ± 0.013 | 0.321 ± 0.022 | 0.45677 ± 0.00022
8 | SVVYSVWIYLLH | 0.309 ± 0.0075 | 0.352 ± 0.018 | 0.4407 ± 0.0016 | 0.292 ± 0.022 | 0.484 ± 0.026 | 0.175 ± 0.0072 | 0.213 ± 0.03 | 0.392 ± 0.011
9 | LRFMLLSFLVIL | 0.234 ± 0.083 | 0.251 ± 0.021 | 0.207 ± 0.015 | 0.349 ± 0.034 | 0.429 ± 0.019 | 0.2402 ± 0.0023 | 0.176 ± 0.022 | 0.266 ± 0.01
10 | LCLLCWIPCSFR | 0.524 ± 0.048 | 0.629 ± 0.017 | 0.62751 ± 0.00045 | 0.451 ± 0.029 | 0.649 ± 0.0077 | 0.486 ± 0.035 | 0.4661 ± 0.0017 | 0.616 ± 0.0074
11 | PKRNNRKAQQIS | 0.405 ± 0.032 | 0.61 ± 0.015 | 0.698 ± 0.038 | 0.689 ± 0.019 | 0.704 ± 0.06 | 0.249 ± 0.016 | 0.254 ± 0.043 | 0.493 ± 0.019
12 | LYSVLWFCFPLV | 0.466 ± 0.028 | 0.586 ± 0.039 | 0.5638 ± 0.0037 | 0.446 ± 0.025 | 0.577 ± 0.0076 | 0.442 ± 0.035 | 0.42 ± 0.024 | 0.55 ± 0.01
13 | WVRLGRSWTTVG | 0.422 ± 0.029 | 0.68 ± 0.054 | 0.736 ± 0.013 | 0.686 ± 0.035 | 0.754 ± 0.013 | 0.22 ± 0.034 | 0.283 ± 0.016 | 0.549 ± 0.0057
14 | HLKKKLKIRLIN | 0.238 ± 0.031 | 0.488 ± 0.16 | 0.685 ± 0.02 | 0.645 ± 0.011 | 0.698 ± 0.036 | 0.108 ± 0.01 | 0.116 ± 0.02 | 0.171 ± 0.018
15 | CLCVLVSFFFGL | 0.288 ± 0.074 | 0.41 ± 0.037 | 0.489 ± 0.041 | 0.35 ± 0.024 | 0.5006 ± 0.0024 | 0.316 ± 0.024 | 0.323 ± 0.027 | 0.4768 ± 0.0016
16 | IMGGLRHRIEVY | 0.352 ± 0.016 | 0.366 ± 0.038 | 0.403 ± 0.048 | 0.273 ± 0.028 | 0.477 ± 0.012 | 0.23 ± 0.0031 | 0.268 ± 0.034 | 0.437 ± 0.0067
17 | SLRKRILCRFEY | 0.511 ± 0.023 | 0.6572 ± 0.0064 | 0.708 ± 0.011 | 0.655 ± 0.012 | 0.7348 ± 0.0056 | 0.368 ± 0.041 | 0.4388 ± 0.0014 | 0.599 ± 0.023
18 | IVRLGRWLGLSC | 0.352 ± 0.052 | 0.657 ± 0.032 | 0.691 ± 0.025 | 0.613 ± 0.055 | 0.709 ± 0.013 | 0.215 ± 0.031 | 0.261 ± 0.028 | 0.494 ± 0.028
19 | FCSFSWFLFLRS | 0.405 ± 0.034 | 0.211 ± 0.0051 | 0.123 ± 0.023 | 0.329 ± 0.02 | 0.359 ± 0.0085 | 0.599 ± 0.01 | 0.337 ± 0.016 | 0.312 ± 0.022
20 | RTFPYSALSFVS | 0.457 ± 0.013 | 0.618 ± 0.032 | 0.712 ± 0.013 | 0.652 ± 0.046 | 0.718 ± 0.015 | 0.216 ± 0.022 | 0.235 ± 0.045 | 0.445 ± 0.048
